The labels stand for the following.
T1: DGI-2 (UniProt Q15004 1-111, limits assumed)
T1 construct: Soluble recombinant DGI-2 made by in vitro translation (RTS, pIVEX2.3-MCS vector) and coated on plates for the ELISA; vector tag not described; also called KIAA0101; DGI-2 polypeptide
T1 sequence (looked up): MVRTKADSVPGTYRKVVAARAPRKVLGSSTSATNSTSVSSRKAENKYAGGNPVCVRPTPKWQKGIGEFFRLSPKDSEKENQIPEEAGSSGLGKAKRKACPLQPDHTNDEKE

The record followed here is patent publication US7056679 (ANTYRA, dated 2006).

No end group written: not given here.

This experiment concerns the target T1, DGI-2. In words: phage ELISA, coated DGI-2. As for the experimental part:
For analysis of individual target binders, colonies were picked and phage prepared as described above using helper phage, M13KO7. Ninety-six-well microtiter plates were coated with 500 ng/well of specific target protein, 500 ng/well lactate dehydrogenase (LDH) irrelevant or non-specific target, 500 ng/well of positive control antibody raised against ETAG, and negative control of non-fat milk powder-PBS 2% at 4° C. overnight. Plates were then blocked with 350 microliters/well PBS containing 2% non-fat milk for 1 hr at room temperature. One hundred microliters per well of phage from isolated clones were added and plates were incubated at room temperature for 2 hr after centrifuging samples for 20 minutes at 3500 rpm at 4° C. The phage solution was then removed, and the wells were washed three times with PBS at room temperature. Antibody raised against M13 conjugated to horseradish peroxidase (Pharmacia) was diluted 1:3000 in PBS-Tween and added to each well (100 µl/well). Incubation was for 1 hr at room temperature, followed by washing with PBS-(0.5%) Tween 3 times as described. Color was developed by addition of ABTS solution (100 µl/well; Boehringer, Indianapolis, Ind.). Plates were analyzed at 405 nm. A clone was considered "positive" if the $A405$ of the well was $\geq$2-fold over background.
On the technique in general: An ELISA detects its analyte on a solid surface through an enzyme-linked reagent.
For ACSVGTALVFPQRWWYLGRS (on M13 phage, pIII fusion with E-tag) [DGL-2-20R-3-D6], the binding result was “binds”.
Next, TSCQVMFLAGQHLLSRVPRL (on M13 phage, pIII fusion with E-tag) [DGL-2-20R-3-B6]: “binds”.
Next, GLRACDTYLGFCVGARRIDD (on M13 phage, pIII fusion with E-tag) [DGI-2-20F-3-B102]: “binds”.
For the molecule SLSLYWDAQVGCEVFWGYCV (not fully specified; cysteine pairing not given here, on M13 phage, pIII fusion with E-tag) [DGI-2-20R-3-C10], the binding result is “binds”.
In the case of RFWSVSYQGGRVMCREWGYCLPI (not fully specified (bridges); cysteine pairing not given here, on M13 phage, pIII fusion with E-tag) [DGI-2-40F-3-C92] it was “binds”; in that of LSHPMSPLRAASQMALTQGV (on M13 phage, pIII fusion with E-tag) [DGI-2-20R-4-H7], “binds”; in that of RPVVCLAGLTLAQFGWVFPGWRGWS (on M13 phage, pIII fusion with E-tag) [DGI-2-20C-3-C1039], “binds”.
Regarding RVSYEMLGRRRRSMHGSSMR (on M13 phage, pIII fusion with E-tag) [DGI-2-20F-PP-A4], the binding result is listed as “binds”.
CRNFGVIWGAGWVSPGCEDI (not fully specified, on M13 phage, pIII fusion with E-tag) [DGI-2-20E-3-A1]: the binding result was “binds”.
With YTPASILTGFQRGYEGAGNG (on M13 phage, pIII fusion with E-tag) [DGI-2-20R-4-G7], the binding result is “binds”.
Next, LPQSRWLSEAWASWVDGVVD (on M13 phage, pIII fusion with E-tag) [DGI-2-20F-4-F9]: “binds”.
Next, TANGHRYGGCGLWCKWMSGM (not fully specified; cysteine pairing not given here, on M13 phage, pIII fusion with E-tag) [DGI-2-20R-4-E2]: “binds”; MGVVLECEGGWSIPGQTCYF (not fully specified; cysteine pairing not given here, on M13 phage, pIII fusion with E-tag) [DGI-2-20R-3-C7]: “binds”; LTPYSLARSWLSGRPSTGAT (on M13 phage, pIII fusion with E-tag) [DGI-2-20F-3-C12]: “binds”.
In the case of RWSICRGLQYSIPGCAVEDLSDVMA (on M13 phage, pIII fusion with E-tag) [DGI-2-20C-4-H316], the binding result is “binds”.
On to GNKCFPPHDLFWDPCDQLQS (not fully specified (bridges); cysteine pairing not given here, on M13 phage, pIII fusion with E-tag) [DGI-2-20R-4-F6], for which the binding result is given as “binds”.
For the molecule GSTRLRVTVRFCSETGTPGC (not fully specified; cysteine pairing not given here, on M13 phage, pIII fusion with E-tag) [DGI-2-20F-PP-G6], the binding result is given as “binds”.
In the case of DAGIGWVGSMWFPPGCIGAC (not fully specified (bridges); cysteine pairing not given here, on M13 phage, pIII fusion with E-tag) [DGI-2-20R-4-E82], the binding result is reported as “binds”.
For the molecule LSLLSVVVRSMGASAPQRQV (on M13 phage, pIII fusion with E-tag) [DGI-2-20F-3-A7], the binding result is listed as “binds”.
Next, SIILAGCVWVMPCGQNLGGV (not fully specified (bridges); cysteine pairing not given here, on M13 phage, pIII fusion with E-tag) [DGI-2-20F-PP-C4]: “binds”; TVKFQGVVQERSRIAGFRYCGDHAVSWGLAGCPALRDKLQ (on M13 phage, pIII fusion with E-tag) [DGI-2-40F-3-C424]: “binds”.
MFQDVACDLWHSVRCLRRDV (not fully specified (bridges); cysteine pairing not given here, on M13 phage, pIII fusion with E-tag) [DGI-2-20R-3-B3]: the binding result was “binds”.
In the case of REFFNQASRGAWGYMFREWVEG (on M13 phage, pIII fusion with E-tag) [DGI-2-40F-3-A1], the binding result was “binds”.
Consider GSVLERGCLEFSGFCFSLGH (on M13 phage, pIII fusion with E-tag) [DGI-2-20F-3-C1], for which the binding result is “binds”.
Turning to DGKHLTKWSGRGWWSAWVGG (on M13 phage, pIII fusion with E-tag) [DGI-2-20R-3-B12], the binding result is “binds”.
Consider VLQRSLWKDWVDGVMHGGGSRGV (on M13 phage, pIII fusion with E-tag) [DGI-2-20R-3-A7], for which the binding result was “binds”.
Turning to ALRSLGSGGFGWQAGRASPQGMTHFPYFGWSGMPTARVRP (on M13 phage, pIII fusion with E-tag) [DGI-2-40F-3-D7], the binding result was “binds”.
Next, SLFERSARSRYHGSPDCNGS (on M13 phage, pIII fusion with E-tag) [DGI-2-20F-PP-A3]: “binds”; SYRNFAMQSSLQVRRGSVVEDGTCWWEGVRCYSG (on M13 phage, pIII fusion with E-tag) [DGI-2-40F-4-F6]: “binds”; SRPGWCSRGTAWGFPGCSSS (not fully specified (bridges); cysteine pairing not given here, on M13 phage, pIII fusion with E-tag) [DGI-2-20R-3-C4]: “binds”.
Next, LGRTFVWGTCLHLSVSRFGH (on M13 phage, pIII fusion with E-tag) [DGI-2-20F-PP-C3]: “binds”.
In the case of SSVWATWGSDLRTFGSVGFL (on M13 phage, pIII fusion with E-tag) [DGI-2-20F-PP-C7] it was “binds”; in that of VHSQGRMWAIPGLRGGTGAS (on M13 phage, pIII fusion with E-tag) [DGI-2-20R-3-D7], “binds”; in that of DRSRAPLCADKSGRWQRYRR (on M13 phage, pIII fusion with E-tag) [DGI-2-20F-PP-C10], “binds”.
As to EVFVSVWVFRFRVMPVTPGGT (on M13 phage, pIII fusion with E-tag) [DGI-2-20F-PP-E6], the binding result is “binds”.
On to MSSTAWTDRILQRGIGLGPV (on M13 phage, pIII fusion with E-tag) [DGI-2-20R-4-F1212], for which the binding result is listed as “binds”.
In the case of VRAVYSRDAYNEVGRWMRVGI (on M13 phage, pIII fusion with E-tag) [DGI-2-20F-PP-D9], the binding result was “binds”.
Regarding LHFGSVMGWRPPGSLWSRPFGQVHPRSWSGS (on M13 phage, pIII fusion with E-tag) [DGI-2-40F-3-D11], the binding result was “binds”.
As for YGTAGLFLRRACTMSDPGDPLGRRGYTGWGVLWDEWVTGS (on M13 phage, pIII fusion with E-tag) [DGI-2-40F-3-C8], the binding result is “binds”.
For GGGRESWGGGWFMGWGSGAG (on M13 phage, pIII fusion with E-tag) [DGI-2-20R-3-A6], the binding result is “binds”.
In the case of RNWLDKDCVWMGDCGARAGE (on M13 phage, pIII fusion with E-tag) [DGI-2-20F-4-E3] it was “binds”.
Next, MSTLQGPGHLFQMLRRASLG (on M13 phage, pIII fusion with E-tag) [DGI-2-20R-4-H12]: “binds”.
As to QGSAHVVRPPGVYDVPWKVGMFFHPQNWPNSWGRAYFRSG (on M13 phage, pIII fusion with E-tag) [DGI-2-40F-3-D12], the binding result is “binds”.
On to GLEPVPFQTDKRIAMGWTREWLVNGYGAAHRRDARMQSGH (on M13 phage, pIII fusion with E-tag) [DGI-2-40F-3-D6], for which the binding result was “binds”.
As to VVRQGCMAFSGLCSGVTESE (not fully specified; cysteine pairing not given here, on M13 phage, pIII fusion with E-tag) [DGI-2-20R-3-C8], the binding result was “binds”.
As to GWGCSVPGILCVGGHRQGGG (not fully specified; cysteine pairing not given here, on M13 phage, pIII fusion with E-tag) [DGI-2-20R-3-B11], the binding result is “binds”.
Consider SWRLWVSGELQGDRRKGLRG (on M13 phage, pIII fusion with E-tag) [DGI-2-20R-3-B7], for which the binding result is reported as “binds”.
